Results taken from patent US20180118791.

What was measured:
SFNSYTC = tested on: T1, SFNSYTC
T1 sequence: SFNSYTC

[1] = tested on: T2, mutacin 1140 C-terminal carboxyl analog (mu1140-COOH)
T2 sequence: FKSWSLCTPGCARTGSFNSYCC

For MutD, which Observed mass (Da) after in vitro decarboxylation with MutD, 1 hr (MALDI-TOF) (SFNSYTC) is on record?
Its Observed mass (Da) after in vitro decarboxylation with MutD, 1 hr (MALDI-TOF) is 798 Da.

What about the Observed mass (Da) after in vitro decarboxylation with MutD, 1 hr (MALDI-TOF) [1] of the same substance?
Its Observed mass (Da) after in vitro decarboxylation with MutD, 1 hr (MALDI-TOF) is 2310 Da.

What about the Observed mass (Da) after in vitro decarboxylation with MutD, 10 hr (MALDI-TOF) [1] of the same substance?
Its Observed mass (Da) after in vitro decarboxylation with MutD, 10 hr (MALDI-TOF) is 2310 Da.
